Laboratory results: the supplement of paper PMC11780869

System: Bacillus subtilis
Test: cleaved RNA product abundance (RNA/gDNA barcode ratio) relative to median wild-type variant (ratio to wild type); higher = more accumulation of the downstream cleavage product
Conditions: cleavage site: cggR-gapA (positions -7 to +36 mutated)
Description: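 MPRA in B. subtilis. Mutagenized RNase Y cleavage-site regions (9% mutation rate) were inserted into a barcoded reporter mRNA (truncated aprE or tetM). Cells were grown in LB at 37°C to OD600 0.3. The cleaved RNA isoform was gel-purified and its barcodes counted; the RNA:gDNA barcode ratio was normalised to the median wild-type variant, and the median over barcodes is reported per variant. The printed sequence is the variable window only; the reporter flanks are not printed.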

[1] = experiment (reporter, strain, medium): exp 4a: truncated aprE reporter, strain BJT201 with 2% xylose (RNase J1 expressed)
[2] = experiment (reporter, strain, medium): exp 2b: truncated aprE reporter, strain BJT200
[3] = experiment (reporter, strain, medium): exp 6: tetM reporter, strain 168

Row | Sequence | cleaved RNA product abundance [1] | cleaved RNA product abundance [2] | cleaved RNA product abundance [3]
1 | ACAGACGAAGGAGCCGCAAAGAAGCTATTAAGCGATGAATAATCCCTCAATATAAATATCTCTCACTTATTTAAA | 0.0691 |  | 
2 | ACAGACGAAGGAGCCGCAAAGAAGCTATTAAGGAATGAATAATCCCTCAATATAAATATCTCTCACTTATTTAAA | 0.101 | 0.108 | 
3 | ACAGACGAAGGAGCCGCAAAGAAGCTATTAAGGCATGAATAATCCCTCAATATAAATATCTCTCACTTATTTAAA |  | 0.0626 | 
4 | ACAGACGAAGGAGCCGCAAAGAAGCTATTAAGGGAAGAATAATCCCTCAATATAAATATCTCTCACTTATTTAAA | 0.4 | 0.265 | 
5 | ACAGACGAAGGAGCCGCAAAGAAGCTATTAAGGGACGAATAATCCCTCAATATAAATATCTCTCACTTATTTAAA | 0.436 |  | 
6 | ACAGACGAAGGAGCCGCAAAGAAGCTATTAAGGGAGGAATAATCCCTCAATATAAATATCTCTCACTTATTTAAA | 0.24 | 0.287 | 
7 | ACAGACGAAGGAGCCGCAAAGAAGCTATTAAGGGATAAATAATCCCTCAATATAAATATCTCTCACTTATTTAAA |  | 0.479 | 
8 | ACAGACGAAGGAGCCGCAAAGAAGCTATTAAGGGATCAATAATCCCTCAATATAAATATCTCTCACTTATTTAAA | 0.425 |  | 
9 | ACAGACGAAGGAGCCGCAAAGAAGCTATTAAGGGATGAAAAATCCCTCAATATAAATATCTCTCACTTATTTAAA | 0.491 | 0.391 | 
10 | ACAGACGAAGGAGCCGCAAAGAAGCTATTAAGGGATGAACAATCCCTCAATATAAATATCTCTCACTTATTTAAA | 0.568 |  | 
11 | ACAGACGAAGGAGCCGCAAAGAAGCTATTAAGGGATGAATAATACCTCAATATAAATATCTCTCACTTATTTAAA |  | 0.0928 | 
12 | ACAGACGAAGGAGCCGCAAAGAAGCTATTAAGGGATGAATAATCCCTAAATATAAATATCTCTCACTTATTTAAA | 0.407 | 0.346 | 
13 | ACAGACGAAGGAGCCGCAAAGAAGCTATTAAGGGATGAATAATCCCTCAATATAAAAATCTCTCACTTATTTAAA | 0.713 |  | 
14 | ACAGACGAAGGAGCCGCAAAGAAGCTATTAAGGGATGAATAATCCCTCAATATAAATAACTCTCACTTATTTAAA | 0.674 |  | 
15 | ACAGACGAAGGAGCCGCAAAGAAGCTATTAAGGGATGAATAATCCCTCAATATAAATATCTCTCACTTATTTAAA | 0.615 | 0.571 | 0.588
16 | ACAGACGAAGGAGCCGCAAAGAAGCTATTAAGGGATGAATAATCCCTCAATTTAAATATCTCTCACTTATTTAAA | 0.0606 |  | 
17 | ACAGACGAAGGAGCCGCAAAGAAGCTATTAAGGGATGAATAATCCCTCAGTATAAATATCTCTCACTTATTTAAA |  | 0.135 | 
18 | ACAGACGAAGGAGCCGCAAAGAAGCTATTAAGGGATGAATAATCCCTGAATATAAATATCTCTCACTTATTTAAA | 0.343 |  | 
19 | ACAGACGAAGGAGCCGCAAAGAAGCTATTAAGGGATGAATAATCCCTTAATATAAATATCTCTCACTTATTTAAA | 0.827 |  | 
20 | ACAGACGAAGGAGCCGCAAAGAAGCTATTAAGGGATGAATAATTCCTCAATATAAATATCTCTCACTTATTTAAA |  | 0.432 | 

Row | Sequence | cleaved RNA product abundance [1] | cleaved RNA product abundance [2] | cleaved RNA product abundance [3]
21 | ACAGACGAAGGAGCCGCAAAGAAGCTATTAAGGGATGAATACTCCCTCAATATAAATATCTCTCACTTATTTAAA | 0.458 |  | 
22 | ACAGACGAAGGAGCCGCAAAGAAGCTATTAAGGGATGAATATTCCCTCAATATAAATATCTCTCACTTATTTAAA | 0.56 | 0.469 | 
23 | ACAGACGAAGGAGCCGCAAAGAAGCTATTAAGGGATGTATAATCCCTCAATATAAATATCTCTCACTTATTTAAA | 0.576 |  | 
24 | ACAGACGAAGGAGCCGCAAAGAAGCTATTAAGGTATGAATAATCCCTCAATATAAATATCTCTCACTTATTTAAA | 0.0903 | 0.0903 | 
25 | ACAGACGAAGGAGCCGCAAAGAAGCTATTAAGTGATGAATAATCCCTCAATATAAATATCTCTCACTTATTTAAA | 0.113 |  | 
26 | ACAGACGAAGGAGCCGCAAAGAAGCTATTAATGGATGAATAATCCCTCAATATAAATATCTCTCACTTATTTAAA | 0.123 |  | 
27 | ACAGACGAAGGAGCCGCAAAGAAGCTATTATGGGATGAATAATCCCTCAATATAAATATCTCTCACTTATTTAAA | 0.346 |  | 
28 | ACAGACGAAGGAGCCGCAAAGAAGGAATTAAGGGATGAATAATCCCTCAATATAAATATCTCTCACTTATTTAAA | 0.353 |  | 
29 | ACAGACGAAGGAGCCGCAAAGAAGGTATTAAAGGATGAATAATCCCTCAATATAAATATCTCTCACTTATTTAAA | 0.189 |  | 
30 | ACAGACGAAGGAGCCGCAAAGAAGGTATTAAGAGATGAATAATCCCTCAATATAAATATCTCTCACTTATTTAAA | 0.171 |  | 
31 | ACAGACGAAGGAGCCGCAAAGAAGGTATTAAGGAATGAATAATCCCTCAATATAAATATCTCTCACTTATTTAAA | 0.194 | 0.145 | 
32 | ACAGACGAAGGAGCCGCAAAGAAGGTATTAAGGCATGAATAATCCCTCAATATAAATATCTCTCACTTATTTAAA | 0.101 |  | 
33 | ACAGACGAAGGAGCCGCAAAGAAGGTATTAAGGGATAAATAATCCCTCAATATAAATATCTCTCACTTATTTAAA | 1.29 |  | 
34 | ACAGACGAAGGAGCCGCAAAGAAGGTATTAAGGGATGAAAAATCCCTCAATATAAATATCTCTCACTTATTTAAA |  | 1.25 | 
35 | ACAGACGAAGGAGCCGCAAAGAAGGTATTAAGGGATGAATAATCCATCAATATAAATATCTCTCACTTATTTAAA | 0.13 |  | 
36 | ACAGACGAAGGAGCCGCAAAGAAGGTATTAAGGGATGAATAATCCCACAATATAAATATCTCTCACTTATTTAAA |  | 0.314 | 
37 | ACAGACGAAGGAGCCGCAAAGAAGGTATTAAGGGATGAATAATCCCCCAATATAAATATCTCTCACTTATTTAAA | 0.378 |  | 
38 | ACAGACGAAGGAGCCGCAAAGAAGGTATTAAGGGATGAATAATCCCTAAATATAAATATCTCTCACTTATTTAAA | 0.966 | 0.994 | 
39 | ACAGACGAAGGAGCCGCAAAGAAGGTATTAAGGGATGAATAATCCCTCAATATAAATATCTCTCACTTATTTAAA | 1.18 | 1.51 | 0.983
40 | ACAGACGAAGGAGCCGCAAAGAAGGTATTAAGGGATGAATAATCCCTCAATATAAATTTCTCTCACTTATTTAAA | 0.849 |  | 

Row | Sequence | cleaved RNA product abundance [1] | cleaved RNA product abundance [2] | cleaved RNA product abundance [3]
41 | ACAGACGAAGGAGCCGCAAAGAAGGTATTAAGGGATGAATAATCCCTCAATATAACTATCTCTCACTTATTTAAA | 0.73 |  | 
42 | ACAGACGAAGGAGCCGCAAAGAAGGTATTAAGGGATGAATAATCCCTGAATATAAATATCTCTCACTTATTTAAA | 1.45 |  | 
43 | ACAGACGAAGGAGCCGCAAAGAAGGTATTAAGGGATGAATAATCCCTTAATATAAATATCTCTCACTTATTTAAA | 0.326 |  | 
44 | ACAGACGAAGGAGCCGCAAAGAAGGTATTAAGGGATGAATAATCGCTCAATATAAATATCTCTCACTTATTTAAA |  | 0.176 | 
45 | ACAGACGAAGGAGCCGCAAAGAAGGTATTAAGGTATGAATAATCCCTCAATATAAATATCTCTCACTTATTTAAA | 0.23 |  | 
46 | ACAGACGAAGGAGCCGCAAAGAAGGTATTAAGTGATGAATAATCCCTCAATATAAATATCTCTCACTTATTTAAA | 0.104 |  | 
47 | ACAGACGAAGGAGCCGCAAAGAAGGTCTTAAGGGATGAATAATCCCTCAATATAAATATCTCTCACTTATTTAAA | 0.115 |  | 
48 | ACAGACGAAGGAGCCGCAAAGAAGTAAATAAGGAATGAATAATCCCTCAATATAAATATCTCTCACTTATTTAAA | 0.0667 |  | 
49 | ACAGACGAAGGAGCCGCAAAGAAGTAAATAAGGGATGAATAATCCCTCAATATAAATATCTCTCACTTATTTAAA | 0.258 | 0.151 | 
50 | ACAGACGAAGGAGCCGCAAAGAAGTAAGTAAGGGATGAATAATCCCTCAATATAAATATCTCTCACTTATTTAAA | 0.378 | 0.212 | 
51 | ACAGACGAAGGAGCCGCAAAGAAGTAATAAAGGGATGAATAATCCCTCAATATAAATATCTCTCACTTATTTAAA | 0.205 |  | 
52 | ACAGACGAAGGAGCCGCAAAGAAGTAATTAAAGGATGAATAATCCCTCAATATAAATATCTCTCACTTATTTAAA | 0.105 | 0.101 | 
53 | ACAGACGAAGGAGCCGCAAAGAAGTAATTAAAGGATTAATAATCCCTCAATATAAATATCTCTCACTTATTTAAA | 0.183 |  | 
54 | ACAGACGAAGGAGCCGCAAAGAAGTAATTAACGGATGAATAATCCCTCAATATAAATATCTCTCACTTATTTAAA | 0.133 |  | 
55 | ACAGACGAAGGAGCCGCAAAGAAGTAATTAACGGATGAATAATCCCTGAATATAAATATCTCTCACTTATTTAAA | 0.16 |  | 
56 | ACAGACGAAGGAGCCGCAAAGAAGTAATTAAGAGATAAATAATCCCTCAATATAAATATCTCTCACTTATTTAAA | 0.123 |  | 
57 | ACAGACGAAGGAGCCGCAAAGAAGTAATTAAGAGATGAATAATCCCTCAATATAAATATCTCTCACTTATTTAAA | 0.141 | 0.0957 | 
58 | ACAGACGAAGGAGCCGCAAAGAAGTAATTAAGCGATGAATAATCCCTCAATATAAATATCTCTCACTTATTTAAA | 0.157 |  | 
59 | ACAGACGAAGGAGCCGCAAAGAAGTAATTAAGGAATGAATAATCCCTCAATATAAATATCTCTCACTTATTTAAA | 0.0879 | 0.0931 | 
